According to US20220289861A1 (ONCORESPONSE, published 2022):

Biological target: T1, His-tagged recombinant human CD163 (R&D Systems, No. 1607-CD-050) (human, UniProt Q86VB7 42-1050, limits assumed)
T1 construct: Bought protein; also called huCD163; not shown: His tag
Experiment: ELISA on plate-coated recombinant human CD163 (5 ug/mL), anti-human IgG F(ab')2 HRP
Method: AB101 binding to His-tagged recombinant human CD163 (R&D Systems, No. 1607-CD-050) and recombinant murine CD163 (R&D Systems, No. 7435-CD-050) proteins was determined using ELISA. Recombinant proteins were diluted in PBS to 5 μg/mL and added to 384-well High binding ELISA plates (Greiner Bio-One, No. 781061) at 25 μL per well and incubated at 4° C. overnight. The plates were washed three times with PBS, using the BioTek ELx405 Select microplate washer (wash program ELISA_384_PBS_3×_wash) and then blocked with 90 μL/well of blocking buffer (2% nonfat, dry milk/PBS+0.05% Tween 20) for 1 hr at RT.
After blocking, 25 μL per well of primary antibodies were added to the plates and incubated for 1 hr at room temp. The test antibody was AB101; the control anti-huCD163 antibody was a commercially available antibody in murine IgG1 framework (R&D Systems, #MAB1607); the isotype controls were a proprietary mAb, in human IgG1, human FcNull, and murine IgG1 frameworks, with known specificity. After primary antibody binding, plates were washed three times with PBS using the EL405x (wash program ELISA_384_PBS_3×_wash). […] After development, the reaction was stopped by adding 25 μL per well of 0.3 M HCl and plates were read using the SpectraMax M5e instrument at 450 nm.

T1 sequence (Q86VB7 42-1050 limits assumed): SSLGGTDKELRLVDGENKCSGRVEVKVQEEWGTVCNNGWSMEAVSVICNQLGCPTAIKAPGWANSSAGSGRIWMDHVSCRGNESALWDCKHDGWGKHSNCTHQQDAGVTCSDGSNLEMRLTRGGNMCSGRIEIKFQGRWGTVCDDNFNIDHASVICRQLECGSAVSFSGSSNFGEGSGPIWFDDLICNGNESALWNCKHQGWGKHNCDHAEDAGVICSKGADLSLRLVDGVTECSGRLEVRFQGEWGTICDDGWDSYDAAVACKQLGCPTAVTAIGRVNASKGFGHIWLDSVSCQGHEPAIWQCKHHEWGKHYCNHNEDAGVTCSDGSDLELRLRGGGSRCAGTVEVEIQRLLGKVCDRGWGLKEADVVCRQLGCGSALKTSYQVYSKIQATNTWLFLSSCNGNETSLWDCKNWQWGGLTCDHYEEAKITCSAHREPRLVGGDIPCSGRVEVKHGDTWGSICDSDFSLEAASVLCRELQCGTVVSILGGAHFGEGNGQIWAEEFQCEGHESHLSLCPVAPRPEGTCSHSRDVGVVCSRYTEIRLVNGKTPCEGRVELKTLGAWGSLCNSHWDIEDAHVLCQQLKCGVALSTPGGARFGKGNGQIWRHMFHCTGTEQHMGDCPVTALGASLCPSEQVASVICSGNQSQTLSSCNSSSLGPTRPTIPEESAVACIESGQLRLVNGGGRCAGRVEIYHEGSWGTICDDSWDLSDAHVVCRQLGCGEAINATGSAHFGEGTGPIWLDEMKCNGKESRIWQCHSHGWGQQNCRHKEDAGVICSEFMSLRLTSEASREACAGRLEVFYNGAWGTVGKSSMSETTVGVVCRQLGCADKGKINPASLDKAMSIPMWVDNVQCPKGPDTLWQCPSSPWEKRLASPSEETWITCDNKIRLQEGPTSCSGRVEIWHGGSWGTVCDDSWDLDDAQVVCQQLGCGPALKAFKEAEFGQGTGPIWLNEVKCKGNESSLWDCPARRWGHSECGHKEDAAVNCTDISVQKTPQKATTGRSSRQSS

B1: AB102 (antibody, human IgG1, kappa)
heavy: EVQLVESGGGVVQPGRSLRLSCAASGFTFSSYAMHWVRQAPGKGLEWVAVISYDGSNKYYADSVKGRFTISRDNSKNTLYLQMNSLRAEDTAVYYCARENVRPYYDFWSGYYSEYYYYGMDVWGQGTTVTVSSASTKGPSVFPLAPSSKSTSGGTAALGCLVKDYFPEPVTVSWNSGALTSGVHTFPAVLQSSGLYSLSSVVTVPSSSLGTQTYICNVNHKPSNTKVDKRVEPKSCDKTHTCPPCPAPEFEGGPSVFLFPPKPKDTLMISRTPEVTCVVVDVSHEDPEVKFNWYVDGVEVHNAKTKPREEQYNSTYRVVSVLTVLHQDWLNGKEYKCKVSNKALPASIEKTISKAKGQPREPQVYTLPPSREEMTKNQVSLTCLVKGFYPSDIAVEWESNGQPENNYKTTPPVLDSDGSFFLYSKLTVDKSRWQQGNVFSCSVMHEALHNHYTQKSLSLSPGK
light: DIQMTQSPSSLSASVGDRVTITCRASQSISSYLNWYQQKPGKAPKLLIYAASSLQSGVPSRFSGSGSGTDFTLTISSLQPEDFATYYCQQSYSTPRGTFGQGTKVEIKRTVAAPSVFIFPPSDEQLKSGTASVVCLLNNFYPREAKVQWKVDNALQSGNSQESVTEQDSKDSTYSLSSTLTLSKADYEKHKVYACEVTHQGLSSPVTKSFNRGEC
notes: Biotinylated for the PFA immunoprecipitation and AF647-conjugated for flow cytometry; also called AB101 FcNull antibody; AB101 in FcNull framework
Question: With B1 as the binder, how does the “EC50 (read off the curve)” value read?
Answer: ~1 nM
